According to IntAct's records for PubMed 22291008:

B1: High affinity immunoglobulin epsilon receptor subunit gamma (Homo sapiens), P30273 (parent)
chain: MIPAVVLLLLLLVEQAAALGEPQLCYILDAILFLYGIVLTLLYCRLKIQVRKAAITSYEKSDGVYTGLSTRNQETYETLKHEKPPQ
partner: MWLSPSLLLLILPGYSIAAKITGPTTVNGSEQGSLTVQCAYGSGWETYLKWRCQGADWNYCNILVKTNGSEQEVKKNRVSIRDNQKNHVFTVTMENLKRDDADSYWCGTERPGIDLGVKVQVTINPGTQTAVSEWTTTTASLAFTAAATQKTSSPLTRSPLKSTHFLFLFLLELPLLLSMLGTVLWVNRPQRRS
B2: CMRF35-like molecule 5 (Homo sapiens), Q6UXZ3 (parent)
chain: B1 partner

Variants of: B1
Settings: with clm5_human CD300LD, Q6UXZ3

Row | effect of a mutation on the interaction | Variant
1 | decreasing interaction strength | D29A

Variants of: B2
Settings: with fcerg_human FCER1G, P30273

Row | effect of a mutation on the interaction | Variant
2 | with no effect | E173A
